According to patent US20240117018A1:

Experiments:
Assay in all cases: cell-based or functional assay
[1] = target: HIV-1 Env of pseudovirus CNE53 (HIV-1)
[2] = target: HIV-1 Env of pseudovirus Ce1172_H1 (HIV-1)
[3] = target: HIV-1 Env of pseudovirus 6240_08_TA5_4622 (HIV-1)
[4] = target: HIV-1 Env of pseudovirus REJO4541.67 (HIV-1)
[5] = target: HIV-1 Env of pseudovirus ZM197M.PB7 (HIV-1)
[6] = target: HIV-1 Env of pseudovirus Q842.d12 (HIV-1)
[7] = target: HIV-1 Env of pseudovirus Du422.1 (HIV-1)
[8] = target: HIV-1 Env of pseudovirus PVO.4 (HIV-1)
[9] = target: HIV-1 Env of pseudovirus 1056_10_TA11_1826 (HIV-1)
[10] = target: HIV-1 Env of pseudovirus 246F C1G (HIV-1)
[11] = target: HIV-1 Env of pseudovirus 6535.3 (HIV-1)
[12] = target: HIV-1 Env of pseudovirus TRJO4551.58 (HIV-1)
[13] = target: HIV-1 Env of pseudovirus Ce0393_C3 (HIV-1)
[14] = target: HIV-1 Env of pseudovirus THRO4156.18 (HIV-1)
[15] = target: HIV-1 Env of pseudovirus ZM214M.PL15 (HIV-1)
[16] = target: HIV-1 Env of pseudovirus CNE52 (HIV-1)
[17] = target: HIV-1 Env of pseudovirus Du156.12 (HIV-1)
[18] = target: HIV-1 Env of pseudovirus CNE20 (HIV-1)
[19] = target: HIV-1 Env of pseudovirus 0260.v5.c36 (HIV-1)
[20] = target: HIV-1 Env of pseudovirus Ce0682_E4 (HIV-1)
[21] = target: HIV-1 Env of pseudovirus HIV-001428-2.42 (HIV-1)
[22] = target: HIV-1 Env of pseudovirus ZM249M.PL1 (HIV-1)
[23] = target: HIV-1 Env of pseudovirus CAP210.2.00.E8 (HIV-1)
[24] = target: HIV-1 Env of pseudovirus ZM233M.PB6 (HIV-1)
[25] = target: HIV-1 Env of pseudovirus Ce2010_F5 (HIV-1)
[26] = target: HIV-1 Env of pseudovirus CNE30 (HIV-1)
[27] = target: HIV-1 Env of pseudovirus Ce704809221_1B3 (HIV-1)
[28] = target: HIV-1 Env of pseudovirus RHPA4259.7 (HIV-1)
[29] = target: HIV-1 Env of pseudovirus HIV-16845-2.22 (HIV-1)
[30] = target: HIV-1 Env of pseudovirus CNE8 (HIV-1)
[31] = target: HIV-1 Env of pseudovirus T250-4 (HIV-1)
[32] = target: HIV-1 Env of pseudovirus WITO4160.33 (HIV-1)
[33] = target: HIV-1 Env of pseudovirus Ce703010054_2A2 (HIV-1)
[34] = target: HIV-1 Env of pseudovirus Du172.17 (HIV-1)
[35] = target: HIV-1 Env of pseudovirus 1006_11_C3_1601 (HIV-1)
[36] = target: HIV-1 Env of pseudovirus 1012_11_TC21_3257 (HIV-1)

## PGT128 (antibody)
[1]
  neutralization IC50: 0.01 µg/mL
  neutralization IC80: 0.049 µg/mL
[2]
  neutralization IC50: 0.013 µg/mL
  neutralization IC80: 0.038 µg/mL
[3]
  neutralization IC50: 0.019 µg/mL
  neutralization IC80: 0.055 µg/mL
[4]
  neutralization IC50: > 50 µg/mL
  neutralization IC80: > 50 µg/mL
[5]
  neutralization IC50: > 50 µg/mL
  neutralization IC80: > 50 µg/mL
[6]
  neutralization IC50: 0.008 µg/mL
  neutralization IC80: 0.102 µg/mL
[7]
  neutralization IC50: 0.039 µg/mL
  neutralization IC80: 0.113 µg/mL
[8]
  neutralization IC50: 0.011 µg/mL
  neutralization IC80: 0.028 µg/mL
[9]
  neutralization IC50: < 0.001 µg/mL
  neutralization IC80: 0.008 µg/mL
[10]
  neutralization IC50: 0.005 µg/mL
  neutralization IC80: 0.014 µg/mL
[11]
  neutralization IC50: 0.004 µg/mL
  neutralization IC80: 0.016 µg/mL
[12]
  neutralization IC50: 0.018 µg/mL
  neutralization IC80: 0.041 µg/mL
[13]
  neutralization IC50: > 50 µg/mL
  neutralization IC80: > 50 µg/mL
[14]
  neutralization IC50: > 50 µg/mL
  neutralization IC80: > 50 µg/mL
[15]
  neutralization IC50: 1.5 µg/mL
  neutralization IC80: 29.4 µg/mL
[16]
  neutralization IC50: > 50 µg/mL
  neutralization IC80: > 50 µg/mL
[17]
  neutralization IC50: 0.017 µg/mL
  neutralization IC80: 0.046 µg/mL
[18]
  neutralization IC50: 0.001 µg/mL
  neutralization IC80: 0.004 µg/mL
[19]
  neutralization IC50: 0.058 µg/mL
  neutralization IC80: 0.162 µg/mL
[20]
  neutralization IC50: > 50 µg/mL
  neutralization IC80: > 50 µg/mL
[21]
  neutralization IC50: 0.026 µg/mL
  neutralization IC80: 0.095 µg/mL
[22]
  neutralization IC50: 39.7 µg/mL
  neutralization IC80: > 50 µg/mL
[23]
  neutralization IC50: > 50 µg/mL
  neutralization IC80: > 50 µg/mL
[24]
  neutralization IC50: > 50 µg/mL
  neutralization IC80: > 50 µg/mL
[25]
  neutralization IC50: > 50 µg/mL
  neutralization IC80: > 50 µg/mL
[26]
  neutralization IC50: 2.06 µg/mL
  neutralization IC80: 12.6 µg/mL
[27]
  neutralization IC50: 0.026 µg/mL
  neutralization IC80: 0.072 µg/mL
[28]
  neutralization IC50: 0.026 µg/mL
  neutralization IC80: 0.109 µg/mL
[29]
  neutralization IC50: 0.181 µg/mL
  neutralization IC80: 0.834 µg/mL
[30]
  IC50 (Titer in TZM.bl cells): 0.019 µg/mL
  IC80 (Titer in TZM.bl cells): 0.052 µg/mL
[31]
  neutralization IC50: < 0.001 µg/mL
  neutralization IC80: 0.007 µg/mL
[32]
  neutralization IC50: > 50 µg/mL
  neutralization IC80: > 50 µg/mL
[33]
  neutralization IC50: > 50 µg/mL
  neutralization IC80: > 50 µg/mL
[34]
  neutralization IC50: 0.028 µg/mL
  neutralization IC80: 0.08 µg/mL
[35]
  neutralization IC50: 0.011 µg/mL
  neutralization IC80: 0.04 µg/mL
[36]
  neutralization IC50: 0.011 µg/mL
  neutralization IC80: 0.033 µg/mL

## PGT145 (antibody)
[1]
  neutralization IC50: 0.006 µg/mL
  neutralization IC80: 0.084 µg/mL
[2]
  neutralization IC50: 0.26 µg/mL
  neutralization IC80: 2.06 µg/mL
[3]
  neutralization IC50: > 50 µg/mL
  neutralization IC80: > 50 µg/mL
[4]
  neutralization IC50: < 0.001 µg/mL
  neutralization IC80: 0.001 µg/mL
[5]
  neutralization IC50: 0.628 µg/mL
  neutralization IC80: 5.24 µg/mL
[6]
  neutralization IC50: 0.032 µg/mL
  neutralization IC80: 0.552 µg/mL
[7]
  neutralization IC50: 22.6 µg/mL
  neutralization IC80: > 50 µg/mL
[8]
  neutralization IC50: 0.192 µg/mL
  neutralization IC80: 0.87 µg/mL
[9]
  neutralization IC50: 0.23 µg/mL
  neutralization IC80: 0.938 µg/mL
[10]
  neutralization IC50: > 50 µg/mL
  neutralization IC80: > 50 µg/mL
[11]
  neutralization IC50: > 50 µg/mL
  neutralization IC80: > 50 µg/mL
[12]
  neutralization IC50: > 50 µg/mL
  neutralization IC80: > 50 µg/mL
[13]
  neutralization IC50: 0.112 µg/mL
  neutralization IC80: 1.23 µg/mL
[14]
  neutralization IC50: 0.01 µg/mL
  neutralization IC80: 0.029 µg/mL
[15]
  neutralization IC50: > 50 µg/mL
  neutralization IC80: > 50 µg/mL
[16]
  neutralization IC50: 0.02 µg/mL
  neutralization IC80: 0.091 µg/mL
[17]
  neutralization IC50: 0.001 µg/mL
  neutralization IC80: 0.018 µg/mL
[18]
  neutralization IC50: 0.318 µg/mL
  neutralization IC80: 6.97 µg/mL
[19]
  neutralization IC50: > 50 µg/mL
  neutralization IC80: > 50 µg/mL
[20]
  neutralization IC50: 33.6 µg/mL
  neutralization IC80: > 50 µg/mL
[21]
  neutralization IC50: 0.001 µg/mL
  neutralization IC80: 0.083 µg/mL
[22]
  neutralization IC50: 1.44 µg/mL
  neutralization IC80: > 50 µg/mL
[23]
  neutralization IC50: 37.8 µg/mL
  neutralization IC80: > 50 µg/mL
[24]
  neutralization IC50: 0.025 µg/mL
  neutralization IC80: 0.68 µg/mL
[25]
  neutralization IC50: > 50 µg/mL
  neutralization IC80: > 50 µg/mL
[26]
  neutralization IC50: > 50 µg/mL
  neutralization IC80: > 50 µg/mL
[27]
  neutralization IC50: 0.102 µg/mL
  neutralization IC80: 0.71 µg/mL
[28]
  neutralization IC50: 0.029 µg/mL
  neutralization IC80: 0.095 µg/mL
[29]
  neutralization IC50: > 50 µg/mL
  neutralization IC80: > 50 µg/mL
[30]
  IC50 (Titer in TZM.bl cells): 0.272 µg/mL
  IC80 (Titer in TZM.bl cells): 2.24 µg/mL
[31]
  neutralization IC50: 0.002 µg/mL
  neutralization IC80: 0.039 µg/mL
[32]
  neutralization IC50: < 0.001 µg/mL
  neutralization IC80: 0.001 µg/mL
[33]
  neutralization IC50: > 50 µg/mL
  neutralization IC80: > 50 µg/mL
[34]
  neutralization IC50: > 50 µg/mL
  neutralization IC80: > 50 µg/mL
[35]
  neutralization IC50: > 50 µg/mL
  neutralization IC80: > 50 µg/mL
[36]
  neutralization IC50: 0.009 µg/mL
  neutralization IC80: 0.025 µg/mL
